Data taken from paper PMC4329186.

Target: human alpha-thrombin (human, UniProt P00734;P00734 328-363;364-622)
Experiment: ctITP-NECEEM capillary electrophoresis; no metal ions; 400 nM thrombin; Tris-HCl sample buffer, no added metal ions, 30 min incubation; Tris and glycine reagents for CE; pH and temperature not given in the material

B1: 29mer thrombin aptamer with Ion Torrent primer handles and spacer (97 nt) (structured_DNA)
DNA: CCTCTCTATGGGCAGTCGGTGATAGTCCGTGGTAGGGCAGGTTGGGGTGACTTAAGGAGTTCAATATCTGAGTCGGAGACACGCAGGGATGAGATGG
B1: binds.
